This is an account of results in PMC9477748, “Organizing structural principles of the IL-17 ligand–receptor axis” (Nature, 2022).

For assay [1], the target named is site-specifically biotinylated IL-17RB, immobilized (human) (UniProt Q9NRM6). Description: SPR; Biacore T100; about 300 RU of site-specifically biotinylated IL-17RB immobilized on a Series S Sensor Chip SA; regeneration 2 M MgCl2; steady-state affinity analysis.
Assay [2] concerns the target T1, IL-17RB (18-502) fused to the ALFA-tag, on HeLa cells (human) (UniProt Q9NRM6).
T1 sequence: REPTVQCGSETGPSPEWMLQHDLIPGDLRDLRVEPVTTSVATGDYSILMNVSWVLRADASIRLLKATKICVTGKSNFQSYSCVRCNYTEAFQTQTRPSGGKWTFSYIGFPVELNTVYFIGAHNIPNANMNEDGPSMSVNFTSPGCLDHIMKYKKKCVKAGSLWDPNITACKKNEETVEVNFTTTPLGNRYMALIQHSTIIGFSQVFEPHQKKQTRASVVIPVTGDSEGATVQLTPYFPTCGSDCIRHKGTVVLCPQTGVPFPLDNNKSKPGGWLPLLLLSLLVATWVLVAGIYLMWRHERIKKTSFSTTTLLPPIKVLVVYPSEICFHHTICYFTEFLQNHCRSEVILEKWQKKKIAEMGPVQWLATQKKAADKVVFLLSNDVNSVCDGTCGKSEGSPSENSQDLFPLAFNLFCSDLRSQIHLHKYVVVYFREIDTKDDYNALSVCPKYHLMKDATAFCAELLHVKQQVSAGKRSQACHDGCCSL

For a further assay, the target named is T2, IL-17RB (1-288) (human, UniProt Q9NRM6 18-288).
T2 construct: signal peptide in the construct; IL-17 receptor B (IL-17RB), human, amino acids 1-288; Two constructs are named (C-terminal 3C-proteinC-8xHis in pVLAD6; C-terminal Avitag-6xHis in pD649); also called IL-17 receptor B; apo-IL-17RB
T2 sequence (looked up): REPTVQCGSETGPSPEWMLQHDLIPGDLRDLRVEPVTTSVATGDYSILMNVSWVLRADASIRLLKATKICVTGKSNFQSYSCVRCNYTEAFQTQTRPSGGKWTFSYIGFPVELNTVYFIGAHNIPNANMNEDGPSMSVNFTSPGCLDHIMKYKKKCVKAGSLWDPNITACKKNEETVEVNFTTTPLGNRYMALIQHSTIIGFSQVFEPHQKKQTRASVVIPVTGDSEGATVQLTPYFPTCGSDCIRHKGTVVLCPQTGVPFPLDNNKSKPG
Description: cryo-EM structure; IL-25 and IL-17RB co-expressed in Expi293F GnTI- cells and co-purified; 2:2 complex (3.18 Å) and higher-order 6:6 complex (4.39 Å) from one sample; HBS 20/150 pH 7.4. The conditions noted are these: both partners purified.

As to “IL-17RA (1-317) (from UniProt Q96F46 33-317) (receptor)”, in assay [1], the dissociation constant (Kd) came out at 13.8 µM.

B1: IL-25 Y92A (ligand)
chain: THTYSHWPSCCPSKGQDTSEELLRWSTVPVPPLEPARPNRHPESCRASEDGPLNSRAISPWRAELDRDLNRLPQDLYHARCLCPHCVSLQTGSHMDPRGNSELLYHNQTVFYRRPCHGEKGTHKGYCLERRLYRVSLACVCVRPRVMG
Consider B1, for which the NF-κB reporter (SEAP) HEK293 cells expressing IL-17RA, ACT1 and endogenous IL-17RB, varying concentrations of IL-25 mutant: EC50 shift relative to WT IL-25 in assay [2] is > 3 log-fold.

B2: IL-25 (amino acids 30-177) (ligand, human, UniProt Q9H293 30-177, looked up)
chain: THTYSHWPSCCPSKGQDTSEELLRWSTVPVPPLEPARPNRHPESCRASEDGPLNSRAISPWRYELDRDLNRLPQDLYHARCLCPHCVSLQTGSHMDPRGNSELLYHNQTVFYRRPCHGEKGTHKGYCLERRLYRVSLACVCVRPRVMG
notes: IL-25 (IL-17E), human, amino acids 30-177; Two constructs are named (Igk signal peptide with C-terminal 3C-cleavable Avitag-6xHis in pEG BacMam; HA signal peptide with C-terminal Avitag-6xHis in a lentiviral vector); also called IL-17E; WT IL-25
Take B2: in the assay with IL-17RB (1-288), the binding result is listed as “binds”.
